Assay results published in patent US8440788B2, “N-terminal VDAC variants and uses thereof” (Ben-Gurion University of The Negev Research and Development …, priority 2006, dated 2013).

Columns and labels:
[1] = system: hVDAC1-shRNA-T-REx-293 cells; assay: Apoptosis induced by various stimuli in cells expressing native or truncated mVDAC1; format: cell-based, human; settings: for cell death in cells expressing native mVDAC1: hVDAC1-shRNA-T-REx-293 cells expressing mVDAC1
Protocol: (§1) Apoptotic cell death was analyzed by Acridine Orange/Ethidium Bromide staining.
(§2) T-REx-293 cells correspond to a transformed primary human embryonal kidney cell line, expressing the tetracycline repressor. hVDAC1-shRNA T-REx-293 cells stably expressing the pSUPERretro plasmid encoding shRNA targeting hVDAC1 were obtained and grown as described previously (Abu-Hamad et al. (2006), supra). […] Cell viability was analyzed by staining with acridine orange and ethidium bromide in PBS (Zaid et al. (2005). Cell death and differentiation, 12, 751-760). Images were recorded using Zeiss LSM510 confocal or Olympus IX51 fluorescence microscopes. Mitochondria preparation and measurements of ATP levels and Ca^+ accumulation were carried out as previously described (Abu-Hamad et al. (2006), supra).

HK-I [2] = molecular target: T1, HK-I (Rattus norvegicus, UniProt P05708); assay: Real time surface plasmon resonance, immobilized HK-I; format: binding; settings: SPR, increasing peptide concentrations
T1 construct: Purified rat brain HK-I; from tissue; host or cells: rat brain
T1 sequence (P05708 1-918): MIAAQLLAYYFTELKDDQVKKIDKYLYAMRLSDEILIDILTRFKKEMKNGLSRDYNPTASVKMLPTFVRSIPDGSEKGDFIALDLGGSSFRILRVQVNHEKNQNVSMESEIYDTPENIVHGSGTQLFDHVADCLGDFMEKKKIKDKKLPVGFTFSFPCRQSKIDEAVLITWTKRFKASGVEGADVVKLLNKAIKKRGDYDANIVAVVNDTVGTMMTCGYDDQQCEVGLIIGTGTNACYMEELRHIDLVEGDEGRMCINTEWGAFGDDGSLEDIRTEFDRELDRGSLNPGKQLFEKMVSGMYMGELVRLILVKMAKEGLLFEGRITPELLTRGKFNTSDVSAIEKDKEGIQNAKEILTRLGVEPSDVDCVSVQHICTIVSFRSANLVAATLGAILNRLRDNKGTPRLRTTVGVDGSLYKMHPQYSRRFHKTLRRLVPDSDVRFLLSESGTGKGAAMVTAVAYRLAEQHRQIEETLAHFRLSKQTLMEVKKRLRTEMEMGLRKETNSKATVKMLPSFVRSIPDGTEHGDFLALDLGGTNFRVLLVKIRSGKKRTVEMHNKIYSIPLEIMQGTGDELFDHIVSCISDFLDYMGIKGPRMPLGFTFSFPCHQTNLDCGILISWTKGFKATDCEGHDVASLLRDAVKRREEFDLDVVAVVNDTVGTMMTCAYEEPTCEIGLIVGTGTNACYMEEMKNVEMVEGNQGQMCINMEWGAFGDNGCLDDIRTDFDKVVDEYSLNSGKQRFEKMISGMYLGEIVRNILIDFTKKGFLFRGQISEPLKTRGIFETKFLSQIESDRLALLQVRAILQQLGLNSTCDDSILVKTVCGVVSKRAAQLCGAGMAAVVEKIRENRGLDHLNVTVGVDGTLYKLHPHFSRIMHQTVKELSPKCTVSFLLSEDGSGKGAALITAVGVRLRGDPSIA
Protocol: (§3) Surface plasmon resonance (SPR) using the ProteOn-XPR36 (Bio-Rad, USA) system was employed to study the interaction of VDAC1 N-terminal peptides with purified HK-I and Bcl2. Purified rat brain HK-I, recombinant Bcl2 and rabbit IgG were immobilized on a CM5 sensor surface according to the manufacture's instructions. N-terminal VDAC1 peptides were diluted in running buffer (150 mM NaCl, 0.005% Tween-20, 4% (V/V) DMSO, 10 mM PBS, pH, 7.4) and injected onto the sensor chip at varying concentrations at a flow rate of 40 μl/min at 25° C.

Bcl2 = Bcl2 (Homo sapiens, UniProt P10415); assay: Real time surface plasmon resonance, immobilized Bcl2; format: binding; settings: SPR, increasing peptide concentrations
Sequence of Bcl2 (P10415 whole entry, species assumed): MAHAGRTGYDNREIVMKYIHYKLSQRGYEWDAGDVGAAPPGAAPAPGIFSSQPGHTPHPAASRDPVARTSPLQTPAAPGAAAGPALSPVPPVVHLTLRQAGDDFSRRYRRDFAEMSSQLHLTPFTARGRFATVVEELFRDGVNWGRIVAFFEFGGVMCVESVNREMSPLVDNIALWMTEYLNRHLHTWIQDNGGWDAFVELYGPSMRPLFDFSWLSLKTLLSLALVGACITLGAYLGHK
Protocol: as §3

IgG = assay: Real time surface plasmon resonance, immobilized IgG (control); format: binding, rabbit; settings: SPR control
Protocol: as §3

[3] = system: hVDAC1-shRNA-T-REx-293 cells; assay: Restoration of cell growth in T-REx-293 cells silenced for hVDAC1; format: cell-based, human; settings: expression under tetracycline control; Trypan-Blue counting
Protocol: as §2

[4] = Channel conductance of purified VDAC reconstituted into planar lipid bilayer; format: biochemical
Protocol: (§4) Briefly, PLB were prepared from soybean asolectin dissolved in n-decane (50 mg/ml) in a chamber containing 10 mM Hepes/KOH, pH 7.4 and 0.5 or 1M NaCl (cis/trans). Only PLBs with a resistance greater than 100 GΩ were used. Purified VDAC (about 1 ng) was added to the chamber defined as the cis side. After insertion of one or more channels into the PLB, excess protein was removed by perfusion of the cis chamber with 20 volumes of a same solution. Currents were recorded under voltage-clamp mode using a Bilayer Clamp amplifier (Warner Instruments, Hamden, Conn.). Currents were measured with respect to the trans side of the membrane (ground). The currents were low-pass filtered at 1 kHz, using a Bessal filter (Frequency Devices, Haverhill, Mass.) and digitized on-line using a Digidata 1200 interface board and pCLAMP 6 software (Axon Instruments). Sigma Plot 2000 scientific software was used for data analyses. Experiments were performed at 23-25° C.

[5] = system: T-REx-293 cells silenced for hVDAC1 expression; assay: Cell death triggered by tetracycline-induced over-expression; format: cell-based, human; settings: over-expression induced by 2.5 μg/ml tetracycline
Protocol: as §1, §2

[6] = system: hVDAC1-shRNA T-REx-293 cells; assay: Cytochrome c release induced by staurosporine (STS); format: cell-based, human; settings: STS (1.25 μM) for 5 h; Western blotting
Protocol: Seventy-two hours later, cells were exposed to STS (1.25 μM) for 5 h. Cells were harvested, washed twice with PBS, incubated on ice for 1 h in extraction buffer (200 mM manitol, 70 mM sucrose, 1 mM EGTA, 1 mM EDTA, 10 μg/ml leupeptine, 1 mM PMSF, 1 mg/ml BSA, 10 mM HEPES, pH 7.5) and then lysed with a Dounce homogenizer by 25 strokes. Homogenates were centrifuged (1000×g) at 4° C. for 10 min and the supernatants were re-centrifuged at 15,000×g for 30 min at 4° C. Aliquots (10 μl) of the resultant supernatants, designated as the cytosolic fraction, were immediately boiled in SDS-PAGE sample buffer and resolved by SDS-PAGE on Tris-Tricine gels (13% polyacrylamide) and immunoblotted using monoclonal anti-cytochrome c antibodies. To rule out mitochondrial contamination of the cytosolic fraction, the presence of VDAC was tested by immunoblotting. Although supernatants from the different treated cultures were derived from equal number of cells, protein concentration in the total cells lysates were estimated as well as, actin levels were analyzed by immunoblotting using anti-actin antibodies.

HK-I [7] = molecular target: T1, HK-I; assay: Effect of HK-I on channel activity of bilayer-reconstituted VDAC1; format: biochemical; settings: HK-I (28 mU/ml), voltage step 0 to +40 mV
Protocol: as §4

**Q.** Which “cell death in cells expressing native mVDAC1” value [1] does the source give for O=[As]O[As]=O (stereo not shown) [As2O3] here?
**A.** induced death

**Q.** With CN[C@@H]1C[C@H]2O[C@@](C)([C@@H]1OC)n1c3ccccc3c3c4c(c5c6ccccc6n2c5c31)C(=O)NC4 [Staurosporine] as the molecule, how does the “cell death in cells expressing native mVDAC1” value [1] read?
**A.** induced death

**Q.** With COc1cc(/C=C/C(=O)CC(=O)/C=C/c2ccc(O)c(OC)c2)ccc1O [curcumin] as the molecule, how does the “cell death in cells expressing native mVDAC1” value [1] read?
**A.** induced death

**Q.** With “LP3: VDAC1-based peptide representing a loop (E157 to T174, 18 amino acids) predicted to face the intermembranal space (ETAKSRVTQSNFAVGYKT)” as the molecule, how does the “binding to immobilized HK-I” value (HK-I [2]) read?
**A.** did not interact

**Q.** What about the “binding to immobilized Bcl2” value (Bcl2) of the same molecule?
**A.** did not interact

**Q.** For “VDAC1 N-terminal peptide: a peptide corresponding to the N-terminal region of VDAC1 (MAVPPTYADLGKSARDVFTKGYGFGL)”, which “binding to immobilized HK-I” value (HK-I [2]) is on record?
**A.** strongly bound

**Q.** And the “binding to immobilized Bcl2” value (Bcl2)?
**A.** strongly bound

**Q.** And the “binding to IgG-immobilized chip” value (IgG)?
**A.** no signal

B1: Δ(1-26)mVDAC1: N-terminal truncated mouse VDAC1 polypeptide lacking amino acids 1-26 (protein)
chain: IKLDLKTKSENGLEFTSSGSANTETTKVNGSLETKYRWTEYGLTFTEKWNTDNTLGTEITVEDQLARGLKLTFDSSFSPNTGKKNAKIKTGYKREHINLGCDVDFDIAGPSIRGALVLGYEGWLAGYQMNFETSKSRVTQSNFAVGYKTDEFQLHTNVNDGTEFGGSIYQKVNKKLETAVNLAWTAGNSNTRFGIAAKYQVDPDACFSAKVNNSSLIGLGYTQTLKPGIKLTLSALLDGKNVNAGGHKLGLGLEFQA
**Q.** With B1 as the molecule, how does the “cell growth in cells silenced for hVDAC1” value [3] read?
**A.** restored cell growth

**Q.** And the maximal conductance ([4]; at 1M NaCl)?
**A.** 4 nS

**Q.** What about the “voltage dependence of conductance” value ([4]; planar lipid bilayer, FIG. 4) of the same molecule?
**A.** no voltage dependence

**Q.** What about the “cell death on over-expression” value [5] of the same molecule?
**A.** continue to grow over 8 days

**Q.** And the apoptotic cell death ([5]; over 8 days)?
**A.** 5-8%

**Q.** What about the “sensitivity of expressing cells to induced apoptosis” value ([1]; curcumin (100 μM), As2O3 (60 μM) or STS (1.25 μM)) of the same molecule?
**A.** resistant

**Q.** And the “cytochrome c release into the cytosol” value [6]?
**A.** no cytochrome c release

**Q.** What about the “effect of HK-I on channel activity” value (HK-I [7]) of the same molecule?
**A.** no effect
